The results in this text go back to patent publication US20050261472A1, “Binding moieties for fibrin” (Dyax Corp., priority 1999, published 2005).

The target of one test is T1, human serum albumin (human, UniProt P02768 25-609).
T1 construct: also called HSA
The test can be described thus: phage ELISA on immobilised HSA. The method, then: (§1) After five rounds of selection, the eluted phage were propagated and a portion plated to isolate phage plaques arising from individual clones. Ninety such clones were selected randomly, propagated, and tested individually for binding to fibrin in a dried fibrin plate assay. Dried fibrin plates were prepared as described above for the library screening. Phage samples (˜10⁹ phage each) were incubated in the dried fibrin plate wells in binding buffer (50 mM Tris, 150 mM NaCl, 2 mM CaCl₂, 0.05% Tween-20) containing 0.1% HSA. After 1 hour, the plates were washed 5 times with binding buffer. Anti-M13 antibody conjugated to horseradish peroxidase (Pharmacia) was added at 1/5000 dilution in binding buffer to the wells and incubated with the fibrin for 1 hour. The wells were again washed 5 times with binding buffer and the presence of the antibody/phage/fibrin complex was measured with HRP calorimetric reagents (3,3′,5,5′-tetrarnethylbenzidine (TMB) and H₂O₂). A high absorbance at 595 nm (due to oxidized TMB) was indicative of a tight phage/fibrin interaction, and phage clones corresponding to those wells were identified as bearing fibrin-binding moieties.
(§2) These fibrin-binding positive clones were subjected to several secondary ELISA assays. These assays followed a similar protocol to that detailed above for the dried fibrin ELISA assay, the only variations being the method of target immobilization and the omission of HSA from binding and wash buffers. A screen against DD(E) acted as a further confirmation of fibrin binding activity. An ELISA screen against fibrinogen (immobilized to the plate by the biotin/streptavidin protocol used for DD(E)) was a check against fibrinogen binding and confirmed that the negative selection procedure detailed in Example 2 had been effective. Finally, ELISAs to assay binding to immobilized HSA (passively bound to the polystyrene plate) and a target-free microtiter plate were controls to eliminate phage that bound promiscuously or nonspecifically.
A general note: In an ELISA, binding on a coated surface is turned into a signal by an enzyme label.

For a further test, the target named is T2, fibrinogen (UniProt P02671 20-629; P02675 31-491; P02679 27-437, limits assumed).
T2 sequence (looked up) 1: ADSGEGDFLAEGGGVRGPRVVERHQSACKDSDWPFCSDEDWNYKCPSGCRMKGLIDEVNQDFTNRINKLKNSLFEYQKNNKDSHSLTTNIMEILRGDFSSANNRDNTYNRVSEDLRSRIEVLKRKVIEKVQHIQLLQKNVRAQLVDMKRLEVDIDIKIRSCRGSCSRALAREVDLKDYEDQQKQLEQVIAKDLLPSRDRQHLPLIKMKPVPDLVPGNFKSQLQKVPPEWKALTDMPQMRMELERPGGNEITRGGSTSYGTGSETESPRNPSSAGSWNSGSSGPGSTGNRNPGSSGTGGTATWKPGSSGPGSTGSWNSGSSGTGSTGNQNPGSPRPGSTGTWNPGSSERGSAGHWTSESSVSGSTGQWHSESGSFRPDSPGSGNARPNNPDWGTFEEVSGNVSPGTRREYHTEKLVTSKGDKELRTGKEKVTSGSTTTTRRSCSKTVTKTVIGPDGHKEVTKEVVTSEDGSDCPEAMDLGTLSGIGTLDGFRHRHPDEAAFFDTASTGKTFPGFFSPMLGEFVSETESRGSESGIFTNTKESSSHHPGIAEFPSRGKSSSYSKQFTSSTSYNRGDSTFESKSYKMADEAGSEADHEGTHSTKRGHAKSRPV
T2 sequence (looked up) 2: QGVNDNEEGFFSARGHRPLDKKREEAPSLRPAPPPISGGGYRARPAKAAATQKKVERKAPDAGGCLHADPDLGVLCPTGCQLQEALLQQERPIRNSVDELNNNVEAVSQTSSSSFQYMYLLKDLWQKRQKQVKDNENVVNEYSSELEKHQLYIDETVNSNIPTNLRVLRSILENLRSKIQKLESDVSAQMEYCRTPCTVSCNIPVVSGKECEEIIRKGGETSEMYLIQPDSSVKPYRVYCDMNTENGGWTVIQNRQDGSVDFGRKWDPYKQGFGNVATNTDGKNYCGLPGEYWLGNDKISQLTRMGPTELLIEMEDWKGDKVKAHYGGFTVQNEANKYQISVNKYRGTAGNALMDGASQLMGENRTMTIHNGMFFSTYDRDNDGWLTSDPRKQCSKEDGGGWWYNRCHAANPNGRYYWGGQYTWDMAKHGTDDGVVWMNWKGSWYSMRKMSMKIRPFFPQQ
T2 sequence (looked up) 3: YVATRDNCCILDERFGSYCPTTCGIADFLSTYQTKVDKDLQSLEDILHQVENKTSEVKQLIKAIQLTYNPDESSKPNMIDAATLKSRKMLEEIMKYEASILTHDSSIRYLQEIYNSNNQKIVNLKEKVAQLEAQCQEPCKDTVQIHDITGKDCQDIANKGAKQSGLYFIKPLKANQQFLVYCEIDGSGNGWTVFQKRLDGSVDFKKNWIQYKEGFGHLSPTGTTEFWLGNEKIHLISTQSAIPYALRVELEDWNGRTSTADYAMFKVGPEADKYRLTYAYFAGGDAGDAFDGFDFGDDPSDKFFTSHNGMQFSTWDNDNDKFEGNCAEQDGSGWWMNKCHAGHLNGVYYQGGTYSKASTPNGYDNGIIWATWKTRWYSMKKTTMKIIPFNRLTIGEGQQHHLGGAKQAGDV
The test is described as follows: phage ELISA on immobilised fibrinogen. On the procedure: as §1, §2

Ends that are not written are not given here.

T1 sequence (P02768 25-609 limits assumed): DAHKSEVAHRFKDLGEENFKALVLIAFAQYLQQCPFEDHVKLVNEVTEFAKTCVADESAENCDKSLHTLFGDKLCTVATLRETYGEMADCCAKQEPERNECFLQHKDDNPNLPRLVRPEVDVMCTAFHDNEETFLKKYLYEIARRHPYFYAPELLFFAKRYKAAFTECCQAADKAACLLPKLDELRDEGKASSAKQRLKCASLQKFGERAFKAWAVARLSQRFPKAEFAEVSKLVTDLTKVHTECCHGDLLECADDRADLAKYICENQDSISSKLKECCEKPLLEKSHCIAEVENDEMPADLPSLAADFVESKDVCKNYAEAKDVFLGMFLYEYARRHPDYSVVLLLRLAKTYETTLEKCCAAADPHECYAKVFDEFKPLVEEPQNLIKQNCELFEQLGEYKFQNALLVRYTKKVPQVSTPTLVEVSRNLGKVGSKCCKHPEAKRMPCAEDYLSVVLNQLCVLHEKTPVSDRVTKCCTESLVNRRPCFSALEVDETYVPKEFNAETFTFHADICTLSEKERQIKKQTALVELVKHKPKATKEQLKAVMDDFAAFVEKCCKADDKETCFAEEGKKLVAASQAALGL

B1: TN7 isolate 3, phage-displayed LPCDYYGTCLD (peptide)
peptide: LPCDYYGTCLD
notes: Tested as a phage clone; not shown: not specified
For the molecule B1, the binding result in the test with human serum albumin is reported as “no binding”.

B2: TN7 isolate 1, phage-displayed RPCDYYGTCFD (peptide)
peptide: RPCDYYGTCFD
modifications: not fully specified (bridges); cysteine pairing not given here
notes: as for B1
B2: the binding result in the test with fibrinogen and with human serum albumin was “no binding” in each case.

B3: TN7 isolate 4, phage-displayed DPCSYYGTCLH (peptide)
peptide: DPCSYYGTCLH
modifications: not fully specified (bridges); cysteine pairing not given here
notes: as for B1
Consider B3, for which the binding result in the test with fibrinogen and with human serum albumin was “no binding” each time.

B4: TN7 isolate 5, phage-displayed LPCSYYGTCLH (peptide)
peptide: LPCSYYGTCLH
modifications: not fully specified (bridges); cysteine pairing not given here
notes: as for B1
As for B4, the binding result in the test with fibrinogen and in the test with human serum albumin was “no binding” each time.

B5: TN7 isolate 8, phage-displayed DGCHYYGTCLH (peptide)
peptide: DGCHYYGTCLH
modifications: not fully specified (bridges); cysteine pairing not given here
notes: as for B1
With B5, the binding result in the test with fibrinogen and with human serum albumin was “no binding” throughout.

B6: TN7 isolate 11, phage-displayed HDCQYYGTCLH (peptide)
peptide: HDCQYYGTCLH
modifications: not fully specified (bridges); cysteine pairing not given here
notes: as for B1
As to B6, the binding result with fibrinogen and with human serum albumin was “no binding” each time.

B7: TN7 isolate 12, phage-displayed FSCWYSLHCHR (peptide)
peptide: FSCWYSLHCHR
modifications: not fully specified (bridges); cysteine pairing not given here
notes: as for B1
On to B7, for which the binding result with fibrinogen and in the test with human serum albumin was “no binding” each time.

B8: TN7 isolate 6, phage-displayed FACHYYGTCLH (peptide)
peptide: FACHYYGTCLH
modifications: not fully specified (bridges); cysteine pairing not given here
notes: as for B1
On to B8, for which the binding result in the test with fibrinogen and in the test with human serum albumin was “no binding” in each case.

B9: TN7 isolate 7, phage-displayed LACHYYGTCLH (peptide)
peptide: LACHYYGTCLH
modifications: not fully specified (bridges); cysteine pairing not given here
notes: as for B1
On to B9, for which the binding result with fibrinogen and with human serum albumin was “no binding” throughout.

B10: TN7 isolate 2, phage-displayed LSCDYYGTCLR (peptide)
peptide: LSCDYYGTCLR
modifications: not fully specified (bridges); cysteine pairing not given here
notes: as for B1
As for B10, the binding result in the test with fibrinogen and with human serum albumin was “no binding” each time.

B11: TN7 isolate 9, phage-displayed RSCNYYGTCLH (peptide)
peptide: RSCNYYGTCLH
modifications: not fully specified (bridges); cysteine pairing not given here
notes: as for B1
For B11, the binding result with fibrinogen and in the test with human serum albumin was “no binding” each time.

B12: TN7 isolate 10, phage-displayed RPCNYYGTCLH (peptide)
peptide: RPCNYYGTCLH
modifications: not fully specified (bridges); cysteine pairing not given here
notes: as for B1
As to B12, the binding result in the test with fibrinogen and in the test with human serum albumin was “no binding” each time.
